# Molecular target: Fragile X messenger ribonucleoprotein (FMRP) (human (endogenous in iPSC-derived NPCs)) (UniProt Q06787)
# Assay: co-IP
substance,measurement,value
histone H3 di-methylated at lysine 79 (H3K79me2) (from UniProt P68431 1-136) (natural protein),percent of input co-immunoprecipitated,20%

# From paper doi:10.1101/2025.08.31.673358
